According to the supplement of paper PMC10567573:

B1: SCARA5 (parent)
chain: VTEDLRLKDWEHSIALRNISLAKG
B2: KIAA0774 (parent)
chain: FEDEVKRLGWQQQAELQELEERLQ
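Also: lentivirally expressed fusions sorted by FACS into six bins by GFP to DsRed ratio, PSI derived from sequencing read proportions per bin multiplied by bin number.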

Variants of: B1
Assay: protein stability index of a GFP-peptide fusion (GPS, HEK-293T) (PSI 1-6); higher = more stable
Conditions: c terminus: a fixed tail appended
For VSEDLRLKDWEHSIALRNISLAKG [T2S], the protein stability index was 3.11.
Work on VTEDLRLADWEHSIALRNISLAKG [K8A] yielded a protein stability index of 3.43.
With VTEDLRLCDWEHSIALRNISLAKG [K8C] the protein stability index was 3.25.
For VTEDLRLDDWEHSIALRNISLAKG [K8D], the protein stability index was 3.62.
With VTEYLRLKDWEHSIALRNISLAKG [D4Y] the protein stability index was 2.01.
VTEKLRLKDWEHSIALRNISLAKG [D4K] gave a protein stability index of 2.61.
In the case of VTECLRLKDWEHSIALRNISLAKG [D4C], the protein stability index is reported as 2.53.
Variant VTEILRLKDWEHSIALRNISLAKG [D4I] has a protein stability index of 2.35.
With VTEHLRLKDWEHSIALRNISLAKG [D4H] the protein stability index was 3.43.
Variant VTEWLRLKDWEHSIALRNISLAKG [D4W] has a protein stability index of 2.05.
With VTETLRLKDWEHSIALRNISLAKG [D4T] the protein stability index was 3.03.
VTEQLRLKDWEHSIALRNISLAKG [D4Q] gave a protein stability index of 3.42.
VTEFLRLKDWEHSIALRNISLAKG [D4F] gave a protein stability index of 2.03.
With VTEMLRLKDWEHSIALRNISLAKG [D4M] the protein stability index was 2.45.
VTESLRLKDWEHSIALRNISLAKG [D4S] showed a protein stability index of 2.76.
Work on VTELLRLKDWEHSIALRNISLAKG [D4L] yielded a protein stability index of 2.26.
Variant VTEGLRLKDWEHSIALRNISLAKG [D4G] has a protein stability index of 3.04.
VTEPLRLKDWEHSIALRNISLAKG [D4P] gave a protein stability index of 3.41.
In the case of VTEVLRLKDWEHSIALRNISLAKG [D4V], the protein stability index is reported as 2.81.
Work on VTEALRLKDWEHSIALRNISLAKG [D4A] yielded a protein stability index of 2.87.
VTEELRLKDWEHSIALRNISLAKG [D4E] showed a protein stability index of 3.45.
Variant VTENLRLKDWEHSIALRNISLAKG [D4N] has a protein stability index of 3.33.
VTERLRLKDWEHSIALRNISLAKG [D4R] gave a protein stability index of 3.16.
For VTEDLRIKDWEHSIALRNISLAKG [L7I], the protein stability index was 3.13.
VTEDLRTKDWEHSIALRNISLAKG [L7T] showed a protein stability index of 3.39.
VTEDLRFKDWEHSIALRNISLAKG [L7F] gave a protein stability index of 3.75.
Work on VTEDLRWKDWEHSIALRNISLAKG [L7W] yielded a protein stability index of 2.98.
Variant VTEDLREKDWEHSIALRNISLAKG [L7E] has a protein stability index of 4.21.
For VTEDLRYKDWEHSIALRNISLAKG [L7Y], the protein stability index was 3.2.
For VTEDLRCKDWEHSIALRNISLAKG [L7C], the protein stability index was 3.39.
With VTEDLRAKDWEHSIALRNISLAKG [L7A] the protein stability index was 3.35.
VTEDLRDKDWEHSIALRNISLAKG [L7D] gave a protein stability index of 3.89.
Work on VTEDLRQKDWEHSIALRNISLAKG [L7Q] yielded a protein stability index of 3.63.
Work on VTEDLRRKDWEHSIALRNISLAKG [L7R] yielded a protein stability index of 2.81.
In the case of VTEDLRNKDWEHSIALRNISLAKG [L7N], the protein stability index is reported as 3.83.
Variant VTEDLRSKDWEHSIALRNISLAKG [L7S] has a protein stability index of 3.84.
VTEDLRMKDWEHSIALRNISLAKG [L7M] showed a protein stability index of 3.45.
VTEDLRKKDWEHSIALRNISLAKG [L7K] showed a protein stability index of 3.91.
VTEDLRGKDWEHSIALRNISLAKG [L7G] showed a protein stability index of 3.67.
For VTEDLRPKDWEHSIALRNISLAKG [L7P], the protein stability index was 3.89.
Work on VTEDLRVKDWEHSIALRNISLAKG [L7V] yielded a protein stability index of 3.71.
Work on VTEDLRHKDWEHSIALRNISLAKG [L7H] yielded a protein stability index of 3.69.

Variants of: B2
Assay: as above
Conditions: c terminus: a fixed tail appended
Variant FEDEVKRLGWQQQAELQELEEGLQ [R22G] has a protein stability index of 5.26.
FEDEVKRLGWQQQAELQELEEPLQ [R22P] gave a protein stability index of 5.33.
FEDEVKRLGWQQQAELQELEETLQ [R22T] gave a protein stability index of 4.83.
FEDEVKRLGWQQQAELQELEEHLQ [R22H] showed a protein stability index of 4.88.
Variant FEDEVKRLGWQQQAELQELEENLQ [R22N] has a protein stability index of 5.69.
FEDEVKRLGWQQQAELQELEEILQ [R22I] gave a protein stability index of 4.06.
With FEDEVKRLGWQQQAELQELEEKLQ [R22K] the protein stability index was 3.85.
Variant FEDEVKRLGWQQQAELQELEEYLQ [R22Y] has a protein stability index of 4.24.
FEDEVKRLGWQQQAELQELEEVLQ [R22V] showed a protein stability index of 3.77.
With FEDEVKRLGWQQQAELQELEEMLQ [R22M] the protein stability index was 4.04.
FEDEVKRLGWQQQAELQELEEQLQ [R22Q] gave a protein stability index of 4.95.
Variant FEDEVKRLGWQQQAELQELEESLQ [R22S] has a protein stability index of 5.01.
FEDEVKRLGWQQQAELQELEEWLQ [R22W] showed a protein stability index of 4.31.
Work on FEDEVKRLGWQQQAELQELEELLQ [R22L] yielded a protein stability index of 4.13.
FEDEVKRLGWQQQAELQELEERPQ [L23P] gave a protein stability index of 5.48.
Work on FEDEVKRLGWQQQAELQELEERAQ [L23A] yielded a protein stability index of 4.08.
FEDEVKRLGWQQQAELQELEERVQ [L23V] gave a protein stability index of 4.65.
FEDEVKRLGWQQQAELQELEERIQ [L23I] gave a protein stability index of 3.97.
Work on FEDEVKRLGWQQQAELQELEERWQ [L23W] yielded a protein stability index of 3.88.
For FEDEVKRLGWQQQAELQELEERQQ [L23Q], the protein stability index was 4.05.
FEDEVKRLGWQQQAELQELEERSQ [L23S] gave a protein stability index of 4.91.
With FEDEVKRLGWQQQAELQELEERMQ [L23M] the protein stability index was 4.03.
For FEDEVKRLGWQQQAELQELEERCQ [L23C], the protein stability index was 4.14.
With FEDEVKRLGWQQQAELQELEERHQ [L23H] the protein stability index was 4.53.
With FEDEVKRLGWQQQAELQELEERNQ [L23N] the protein stability index was 4.42.
Variant FEDEVKRLGWQQQAELQELEERGQ [L23G] has a protein stability index of 4.58.
In the case of FEDEVKRLGWQQQAELQELEERFQ [L23F], the protein stability index is reported as 4.09.
FEDEVKRLGWQQQAELQELEERDQ [L23D] gave a protein stability index of 5.21.
In the case of FEDEVKRLGWQQQAELQELEERRQ [L23R], the protein stability index is reported as 4.58.
In the case of FEDEVKRLGWQQQAELQELEEREQ [L23E], the protein stability index is reported as 4.65.
FEDEVKRLGWQQQAELQELEERYQ [L23Y] showed a protein stability index of 4.51.
FEDEVKRLGWQQQAELQELEERTQ [L23T] showed a protein stability index of 4.84.
FEDEVKRLGWQQQAELQELEERKQ [L23K] gave a protein stability index of 4.16.
For FEDEVKRLGWQQQAELQELEERLR [Q24R], the protein stability index was 4.14.
With FEDEVKRLGWQQQAELQELEERLH [Q24H] the protein stability index was 3.93.
FEDEVKRLGWQQQAELQELEERLW [Q24W] gave a protein stability index of 3.49.
For FEDEVKRLGWQQQAELQELEERLG [Q24G], the protein stability index was 4.62.
Work on FEDEVKRLGWQQQAELQELEERLM [Q24M] yielded a protein stability index of 3.92.
In the case of FEDEVKRLGWQQQAELQELEERLV [Q24V], the protein stability index is reported as 3.12.
For FEDEVKRLGWQQQAELQELEERLT [Q24T], the protein stability index was 3.99.
In the case of FEDEVKRLGWQQQAELQELEERLK [Q24K], the protein stability index is reported as 4.73.
Variant FEDEVKRLGWQQQAELQELEERLE [Q24E] has a protein stability index of 3.8.
FEDEVKRLGWQQQAELQELEERLN [Q24N] gave a protein stability index of 4.48.
Work on FEDEVKRLGWQQQAELQELEERLS [Q24S] yielded a protein stability index of 4.01.
Work on FEDEVKRLGWQQQAELQELEERLP [Q24P] yielded a protein stability index of 4.96.
FEDEVKRLGWQQQAELQELEERLL [Q24L] showed a protein stability index of 3.48.
FEDEVKRLGWQQQAELQELEERLA [Q24A] showed a protein stability index of 3.81.
In the case of FEDEVKRLGWQQQAELQELEERLD [Q24D], the protein stability index is reported as 3.98.
FEDEVKRLGWQQQAELQELEERLF [Q24F] gave a protein stability index of 3.28.
With FEDEVKRLGWQQQAELQELEERLY [Q24Y] the protein stability index was 3.82.
Work on FEDEVKRLGWQQQAELQELEERLC [Q24C] yielded a protein stability index of 4.22.
FEDEVKRLGWQQQAELQELEERLI [Q24I] showed a protein stability index of 3.41.
